Reference: paper PMC4113718 (Biochemistry, 2013)
Read-outs that look alike come from different tables or passages of the source.

Key:
[1] = target: T1, N-Terminal FITC labeled ubiquitin (UniProt P0CG47 1-76, FITC on the N-terminus); assay: binding of a fluorescent ligand to cells
[2] = target: T1, N-Terminal FITC labeled ubiquitin; assay: binding of a fluorescent ligand to cells; remark: listed apart in the source

Kd [1]: 119 nM | Kd [2]: 154 nM
B1: CXC chemokine receptor (CXCR) 4 on BV-2 cells (receptor, mouse (endogenous in BV-2), UniProt P70658 1-359, looked up)
chain: MEPISVSIYTSDNYSEEVGSGDYDSNKEPCFRDENVHFNRIFLPTIYFIIFLTGIVGNGLVILVMGYQKKLRSMTDKYRLHLSVADLLFVITLPFWAVDAMADWYFGKFLCKAVHIIYTVNLYSSVLILAFISLDRYLAIVHATNSQRPRKLLAEKAVYVGVWIPALLLTIPDFIFADVSQGDISQGDDRYICDRLYPDSLWMVVFQFQHIMVGLILPGIVILSCYCIIISKLSHSKGHQKRKALKTTVILILAFFACWLPYYVGISIDSFILLGVIKQGCDFESIVHKWISITEALAFFHCCLNPILYAFLGAKFKSSAQHALNSMSRGSSLKILSKGKRGGHSSVSTESESSSFHSS
